From patent US20200017552A1

Columns and labels:
[1] = molecular target: HA of Ft. Monmouth influenza virus (on virions) (influenza virus strain Ft. Monmouth); assay: cell-based or functional assay
[2] = molecular target: Influenza H1 hemagglutinin (HA), strain not stated for this experiment; assay: biolayer interferometry after incubation at 80 °C; HA strain not stated

mAb FI6v3 (antibody)
EC50 values for inhibition of viral replication in vitro [1]: 3.1 µg/mL
reduction of binding activity after 1 hr at 80 °C [2]: 74%
